Data: the supplement of paper PMC10567573

B1: CLPTM1 (parent)
chain: MNLHVYISEHEHFTDFNATSALFW
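Also: lentivirally expressed fusions sorted by FACS into six bins by GFP to DsRed ratio, PSI derived from sequencing read proportions per bin multiplied by bin number.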

Variants of: B1
Test: protein stability index of a GFP-peptide fusion (GPS, HEK-293T) (PSI 1-6); higher = more stable
Details: c terminus: a fixed tail appended
Variant MNLHVYISEHEHFTDFNATSALLW has a protein stability index of 5.95. With MNLHVYISEHEHFTDFNATSALDW the protein stability index was 3.62. Variant MNLHVYISEHEHFTDFNATSALCW has a protein stability index of 2.69. Work on MNLHVYISEHEHFTDFNATSALRW yielded a protein stability index of 2.46. Work on MNLHVYISEHEHFTDFNATSALYW yielded a protein stability index of 5.1. MNLHVYISEHEHFTDFNATSALNW showed a protein stability index of 2.46. Work on MNLHVYISEHEHFTDFNATSALIW yielded a protein stability index of 3.19. With MNLHVYISEHEHFTDFNATSALPW the protein stability index was 2.49. In the case of MNLHVYISEHEHFTDFNATSALVW, the protein stability index is reported as 2.13. MNLHVYISEHEHFTDFNATSALQW showed a protein stability index of 2.56. MNLHVYISEHEHFTDFNATSALEW gave a protein stability index of 1.81. MNLHVYISEHEHFTDFNATSALHW showed a protein stability index of 3.78. With MNLHVYISEHEHFTDFNAMSALFW the protein stability index was 1.52. For MNLHVYISEHEHFTDFNAWSALFW, the protein stability index was 1.67. MNLHVYISEHEHFTDFNAVSALFW showed a protein stability index of 1.89. With MNLHVYISEHEHFTDFNADSALFW the protein stability index was 2.48. MNLHVYISEHEHFTDFNAYSALFW showed a protein stability index of 2.08. MNLHVYISEHEHFTDFNAESALFW gave a protein stability index of 2.59. With MNLHVYISEHEHFTDFNARSALFW the protein stability index was 2.89. Variant MNLHVYISEHEHFTDFNAHSALFW has a protein stability index of 2.99. With MNLHVYISEHEHFTDFNACSALFW the protein stability index was 2.92. In the case of MNLHVYISEHEHFTDFNANSALFW, the protein stability index is reported as 3.66. Variant MNLHVYISEHEHFTDFNAISALFW has a protein stability index of 3.09. With MNLHVYISEHEHFTDFNFTSALFW the protein stability index was 4.2. With MNLHVYISEHEHFTDFNRTSALFW the protein stability index was 3.55. For MNLHVYISEHEHFTDFNGTSALFW, the protein stability index was 3.77. MNLHVYISEHEHFTDFNTTSALFW showed a protein stability index of 1.84. In the case of MNLHVYISEHEHFTDFNWTSALFW, the protein stability index is reported as 2.76. In the case of MNLHVYISEHEHFTDFNMTSALFW, the protein stability index is reported as 4.1. MNLHVYISEHEHFTDFNKTSALFW showed a protein stability index of 4.8. Work on MNLHVYISEHEHFTDFNLTSALFW yielded a protein stability index of 2.01. Variant MNLHVYISEHEHFTDFNQTSALFW has a protein stability index of 5.84. Variant MNLHVYISEHEHFTDFNSTSALFW has a protein stability index of 2.46. In the case of MNLHVYISEHEHFTDFNVTSALFW, the protein stability index is reported as 2.92. MNLHVYISEHEHFTDFNHTSALFW showed a protein stability index of 3.29. In the case of MNLHVYISEHEHFTDFNETSALFW, the protein stability index is reported as 1.97. In the case of MNLHVYISEHEHFTYFNATSALFW, the protein stability index is reported as 2.52. MNLHVYISEHEHFTAFNATSALFW gave a protein stability index of 3.71. Work on MNLHVYISEHEHFTSFNATSALFW yielded a protein stability index of 4.3. With MNLHVYISEHEHFTTFNATSALFW the protein stability index was 3.63. In the case of MNLHVYISEHEHFTQFNATSALFW, the protein stability index is reported as 2.3. For MNLHVYISEHEHFTMFNATSALFW, the protein stability index was 3. In the case of MNLHVYISEHEHFTWFNATSALFW, the protein stability index is reported as 3.89. Variant MNLHVYISEHEHFTCFNATSALFW has a protein stability index of 2.43. Variant MNLHVYISEHEHFTEFNATSALFW has a protein stability index of 2.73. For MNLHVYISEHEHFTKFNATSALFW, the protein stability index was 2.71. Work on MNLHVYISEHEHFTDFNATEALFW yielded a protein stability index of 2.37. In the case of MNLHVYISEHEHFTDFNATNALFW, the protein stability index is reported as 3.39. For MNLHVYISEHEHFTDFNATHALFW, the protein stability index was 4.53. Work on MNLHVYISEHEHFTDFNATTALFW yielded a protein stability index of 4.14. MNLHVYISEHEHFTDFNATDALFW showed a protein stability index of 4.08. Variant MNLHVYISEHEHFTDFNATCALFW has a protein stability index of 2.75. Variant MNLHVYISEHEHFTDFNATGALFW has a protein stability index of 2.69. MNLHVYISEHEHFTDFNATAALFW gave a protein stability index of 4.95. MNLHVYISEHEHFTDFNATRALFW gave a protein stability index of 2.1. MNLHVYISEHEHFTDFNATFALFW gave a protein stability index of 2.51. In the case of MNLHVYISEHEHFTDFNATQALFW, the protein stability index is reported as 2.59. With MNLHVYISEHEHFTDFNATMALFW the protein stability index was 2.64. MNLHVYISEHEHFTDFNATYALFW gave a protein stability index of 3.45. MNLHVYISEHEHFTDFNATIALFW gave a protein stability index of 2.69. For MNLHVYISEHEHFTDFNATVALFW, the protein stability index was 2.29. Variant MNLHVYISEHEHFTDFNATKALFW has a protein stability index of 3.57. In the case of MNLHVYISEHELFTDFNATSALFW, the protein stability index is reported as 1.41. For MNLHVYISEHEPFTDFNATSALFW, the protein stability index was 2.64. Variant MNLHVYISEHEMFTDFNATSALFW has a protein stability index of 2.39. Work on MNLHVYISEHECFTDFNATSALFW yielded a protein stability index of 2.72. In the case of MNLHVYISEHEFFTDFNATSALFW, the protein stability index is reported as 3.38. MNLHVYISEHETFTDFNATSALFW gave a protein stability index of 2.1. Work on MNLHVYISEHEYFTDFNATSALFW yielded a protein stability index of 2.77. MNLHVYISEHEWFTDFNATSALFW showed a protein stability index of 3.67. MNLHVYISEHEQFTDFNATSALFW gave a protein stability index of 1.98. MNLHVYISEHESFTDFNATSALFW gave a protein stability index of 1.83. Work on MNLHVYIWEHEHFTDFNATSALFW yielded a protein stability index of 3.59. Work on MNLHVYIYEHEHFTDFNATSALFW yielded a protein stability index of 2.98. MNLHVYISECEHFTDFNATSALFW showed a protein stability index of 2.77. For MNLHVYISEMEHFTDFNATSALFW, the protein stability index was 2.73. MNLHVYISESEHFTDFNATSALFW showed a protein stability index of 2.59. For MNLHVYISEVEHFTDFNATSALFW, the protein stability index was 1.99. MNLHVYISEDEHFTDFNATSALFW gave a protein stability index of 2.41. MNLHVYISEGEHFTDFNATSALFW gave a protein stability index of 2.58. Work on MNLHVYISEIEHFTDFNATSALFW yielded a protein stability index of 1.28. MNLHVYISEPEHFTDFNATSALFW showed a protein stability index of 2.64. For MNLHVYISEEEHFTDFNATSALFW, the protein stability index was 2.77. Work on MNLHVYISETEHFTDFNATSALFW yielded a protein stability index of 3.76. MNLHVYISEHEHFTDFNATSAGFW gave a protein stability index of 4. For MNLHVYISEHEHFTDFNATSARFW, the protein stability index was 1.1. Variant MNLHVYISEHEHFTDFNATSACFW has a protein stability index of 4.78. Work on MNLHVYISEHEHFTDFNATSAAFW yielded a protein stability index of 4.09. MNLHVYISEHEHFTDFNATSASFW showed a protein stability index of 1.97. With MNLHVYISEHEHFTDFNATSAIFW the protein stability index was 1.59. Work on MNLHVYISEHEHFTDFNATSATFW yielded a protein stability index of 3.54. MNLHVYISEHEHFTDFNATSAYFW gave a protein stability index of 2.2. MNLHVYISEHEHFTDFNATSAHFW showed a protein stability index of 2.6. Variant MNLHVYISEHEHFTDFNATSAQFW has a protein stability index of 3.16.
